Assay results from article PMC10164577, “CAF-1 deposits newly synthesized histones during DNA replication using distinct mechanisms on the leading and lagging strands”.

B1: 33 bp DNA (dsDNA)
DNA 1: GCTGTCTACGAGCAATTGAGCGGCCTCGGCACC
DNA 2: GGTGCCGAGGCCGCTCAATTGCTCGTAGACAGC
B2: 43 bp DNA (dsDNA)
DNA 1: CTAGAGCTGTCTACGAGCAATTGAGCGGCCTCGGCACCGGGAT
DNA 2: ATCCCGGTGCCGAGGCCGCTCAATTGCTCGTAGACAGCTCTAG
B3: 53 bp DNA (dsDNA)
DNA 1: CGGTGCTAGAGCTGTCTACGAGCAATTGAGCGGCCTCGGCACCGGGATTCTGA
DNA 2: TCAGAATCCCGGTGCCGAGGCCGCTCAATTGCTCGTAGACAGCTCTAGCACCG

Target: CAF-1 (Cac1-Cac2-Cac3) (Saccharomyces cerevisiae? (yeast), UniProt Q12495;Q04199;P13712 1-606;1-468;1-422)
Experiment: EMSA; EMSA: 25 mM Tris pH 7.5, 150 mM NaCl, 1 mM EDTA, 0.02% Tween-20, 1 mM TCEP, 50 nM DNA, 6% PAGE; SEC: 50 mM HEPES pH 7.5, 200 mM NaCl, 0.01% IGEPAL, 1 mM TCEP, 10 mM MgCl2, PCNA loading at 30 C with 3 mM ATP, CAF-1 at room temperature
Settings: protein: recombinant, chain copies: 2;2;2, blunt

Binder | Kd (label: 5' Alexa Fluor 647 on forward strand) [nM] | Kd [nM]
B1 | 330 | –
B2 | – | 230
B3 | – | 180
